Measurements from patent US7589065B2, “Catalysis of the cis/trans-isomerisation of secondary amide peptide compounds” (Max-Planck Gesellschaft zur Forderung der Wissenschaften, …, priority 2001, dated 2009).

Assay: 2D 1H NMR exchange (NOESY) measurement of cis/trans isomerisation in the pentapeptide
Type: biochemical
Details: 20 μM addition; for relative intensity of the cross signal of the peptide bond Ala-Tyr / relative intensity of the cross signal of the peptide bond Tyr-Ala: 25 mM pentapeptide, pH 7.1, 278° K; for relative intensity of the cross signal of the peptide bond Ala-Tyr: no addition 3.50 ± 0.51; for relative intensity of the cross signal of the peptide bond Tyr-Ala: no addition 3.89 ± 0.32
Excerpt: A further possibility, only described in 1998, is the determination of the cis/trans isomerisation rate of secondary amide peptide bonds containing aromatic amino acids by means of 2D 1H NMR exchange experiments (Scherer G. et al., 1998, JACS 120:5568-5574). In Example 8, this NMR method is used to determine a catalytic acceleration of the cis/trans isomerisation of the peptide bonds Ala-Tyr and Tyr-Ala within the pentapeptide Ala-Ala-Tyr-Ala-Ala. The acceleration is accomplished by catalytic amounts of DnaK.
NMR Device: Bruker DRX-500, Equipped with z-gradient
• FIG. 8: The alanine methyl region from the two-dimensional exchange 1H-NMR spectrum of 25 mM Ala-Ala-Tyr-Ala-Ala in 25 mM Tris, 11 mM MgCl2, 50 mM KCl, 9:1H2O:D2O, pH 7.1 at 278° K. The mixing time of the phase-sensitive NOESY was 330 ms. Each FID had 184 scans. The amount of data from t1×t2=512×8192 points covered a spectral range of 5501 Hz×5482 Hz. The correction of the base line was carried out by adjustment with a polynom of fifth order in the F2 dimension. […] The experiment was carried out under identical conditions as described above. In addition, 20 μM DnaK was contained in the measuring solution.
In a further analysis of the method of the two-dimensional NOESY experiment illustrated in Example 8, the cross signals can be quantified by means of common mathematical techniques.

Row | Molecule | catalysis of the cis/trans isomerisation of the Ala-Tyr and Tyr-Ala peptide bonds (in words) | relative intensity of the cross signal of the peptide bond Ala-Tyr | relative intensity of the cross signal of the peptide bond Tyr-Ala
1 | fragment of the TF: fragment of the trigger factor (Stoller G. et al., 1996) (protein) RKQQATWKEKDGAVEAEDRVTIDFTGSVDGEEFEGGKASDFVLAMGQGRMIPGFEDGIKGHKAGEEFTIDVTFPEEYHAENLKGKAAKFAINLKKVEERELPELTAE | neither catalyse | 3.96 ± 0.77 | 3.22 ± 0.58
2 | trigger factor (TF): peptidyl-prolyl cis/trans isomerase (Stoller G. et al., 1995) (protein) MQVSVETTQGLGRRVTITIAADSIETAVKSELVNVAKKVRIDGFRKGKVPMNIVAQRYGASVRQDVLGDLMSRNFIDAIIKEKINPAGAPTYVPGEYKLGEDFTYSVEFEVYPEVELQGLEAIEVEKPIVEVTDADVDGMLDTLRKQQATWKEKDGAVEAEDRVTIDFTGSVDGEEFEGGKASDFVLAMGQGRMIPGFEDGIKGHKAGEEFTIDVTFPEEYHAENLKGKAAKFAINLKKVEERELPELTAEFIKRFGVEDGSVEGLRAEVRKNMERELKSAIRNRVKSQAIEGLVKANDIDVPAALIDSEIDVLRRQAAQRFGGNEKQALELPRELFEEQAKRRVVVGLLLGEVIRTNELKADEERVKGLIEEMASAYEDPKEVIEFYSKNKELMDNMRNVALEEQAVEAVLAKAKVTEKETTFNELMNQQA | neither catalyse | 3.83 ± 1.07 | 4.42 ± 0.58
3 | Parvulin: peptidyl-prolyl cis/trans isomerase (Rahfeld et al., 1994) (protein) AKTAAALHILVKEEKLALDLLEQIKNGADFGKLAKKHSICPSGKRGGDLGEFRQGQMVPAFDKVVFSCPVLEPTGPLHTQFGYHIIKVLYRN | neither catalyse | 2.90 ± 0.96 | 3.11 ± 0.46
